± gives the uncertainty stated by the source.
Assay: amyloid nucleation score (Sup35N fusion, yeast selection) (log enrichment); library NNK1; higher = more nucleation; inactive = no reads after selection
Outline: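 After 24 hours of induction with 100 μM copper sulfate, psi-negative yeast expressing peptides of 20 random codons fused to Sup35N were grown for 7 days at 30°C on medium lacking adenine and uracil. Input and output plasmid inserts were sequenced with Illumina, and sequences with under 100 input reads were discarded. Scores for nucleation are the DiMSum log enrichment of output over input reads, centred on the mode score of non-aggregating sequences.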

Substance	amyloid nucleation score
LMLGKLWFPGMCYESKWELG	-0.181 ± 1
DRLWIWQGNIVASIYKSCLL	5.41 ± 0.068
RKGSGSRLKIYVYVTVTKIG	0.52 ± 0.93
VYKTRVYVDCYEILDGSKEM	0.491 ± 0.45
HKNSTVKSVWQDLMSDVDVD	-0.028 ± 0.43
DLDVFYCWGAYLAEGDLVCE	0.146 ± 0.41
NGYFGAEDFLIVWIALRKKW	0.5 ± 0.9
SSEDYALVLRSSGALVCSCL	0.418 ± 1
SMFASL	-0.229 ± 0.43
GFFVQNRTWQIH	-0.858 ± 0.45
VIGDLSYRSYI	0.44 ± 0.4
IYYMYYLYHYWMILRENDFM	0.151 ± 0.21
LNSAVDMGCFVVNLYMLCIY	4.22 ± 0.059
GRLFWVNVTLNLRDMNYSDM	1.09 ± 0.5
IGAGL	-1.07 ± 2.4
TMCEYSHFLLRAMNNLMENV	-1.57 ± 2.7
TDSSKGRGARRGGSNSSHSW	-0.419 ± 0.61
GYHDGISMFSCVYSCYQSVS	5.92 ± 0.061
DVCASGRKIVRFFPMSARAQ	inactive
GVHYYHLASWTWISFLITRR	0.424 ± 0.85
LLLLCMDARRKRYSSMSACS	1.02 ± 0.53
NFNCLVTDAFYFRGWKCLDR	4.9 ± 0.12
FWHGSCSLDNDFHS	-0.442 ± 0.51
MGIWSFDTVTRGAMTSVGDA	0.252 ± 0.62
SSRYLSDSIKLAGWSIT	-1.39 ± 2.4
AGMAWYTPVWVSGWGQPHTE	-0.119 ± 0.38

Substance	amyloid nucleation score
PHRFVN	-0.188 ± 0.3
NALYSWAPLDCIMPRIVS	0.299 ± 0.47
YCGGRKG	0.144 ± 0.34
RLTNELLGVSIRLTSWFTFH	0.606 ± 0.48
WPNNRVQFCSCGSRFSCLGS	0.933 ± 0.85
CYASKMFWVVF	2.06 ± 0.27
SPNLI	0.344 ± 0.9
QLSDVSRWSFIWLKGGQRST	0.334 ± 0.84
SGCVQLM	1.32 ± 0.74
RGNLAGLVLMNRHGCV	0.078 ± 0.4
AIGSCWTGLRNGT	0.734 ± 1.1
YPNYFSVRFSNWLASTKFQI	inactive
ALLMGDFGCFLYTFGWFYAK	-0.173 ± 0.41
YFQTRSAKRVCSNQIHVLRW	3.08 ± 0.12
CHCGVL	0.702 ± 1.1
LQQMIRRLVLRFMAATAL	0.14 ± 0.37
ALLVPGILW	3.34 ± 0.078
VMPYYRRSQNHDSFNFGDVS	0.552 ± 0.52
SITSSYKYGKVSWSMSLGVG	-1.07 ± 0.46
MVVWWRHKVLKGHWL	-0.189 ± 0.61
LLHHYGGYELVSDWTIAKF	0.364 ± 0.31
QRYKFLCLRRVENFGGYMSA	2.54 ± 0.24
MMPYQSWDESSSCEDTLKVT	0.453 ± 0.35
GELLKMNVQIRYMGIWVNIL	3.46 ± 0.18
CNDHNNEYVNVSHTRRARL	0.99 ± 0.24
STTVSIYWCRWGGSSLHDV	0.141 ± 1.4

Substance	amyloid nucleation score
FLSEE	-0.584 ± 0.44
SADSGSQSEEQSKVMRMVYG	-1.64 ± 0.83
YLIRHIENGCSTQCRSTSWV	inactive
SKFVSKNCWTARGAL	-0.166 ± 0.48
FWVKVLY	-0.654 ± 0.37
FGTLCSGDRYVRR	-0.611 ± 0.28
TSVSNMFENPKNLSLVPTVG	1.94 ± 0.5
FRTATWNKIGAQDRVKSISV	-1.06 ± 2.7
ASKMALYPG	0.366 ± 0.56
YMCGLSECAS	5 ± 0.062
RLISTGADCEVRISHIRSRN	0.594 ± 0.48
GYNFKRVSNFSVYGLVSYSN	0.046 ± 1.6
PGCESARRLKLRVSLKLRGK	-0.731 ± 1.1
KYMTDIIT	0.413 ± 0.2
RMDFMWLVKI	4.57 ± 0.056
YLTWQKTWRVRVSVLCTGTD	0.638 ± 0.58
SLVYYLGEWV	-0.366 ± 0.34
MMTACLFIIF	5.925 ± 0.057
LCGSVRFRTGLECKQPSSCI	-1.02 ± 2.7
CYVVKVLFRPIY	1.01 ± 0.97
LLCLCESRVARYTWACHSWY	-0.366 ± 0.3
SLDGNFTKALLLKIR	1.08 ± 0.35
VLCGNPLFRFVLGWRFCVWG	0.335 ± 1.1
VFYACSTPRPSQNASVDFRL	-0.035 ± 0.61
SGWNEFTRGTTRVHWRNQYS	-1.48 ± 2.4
SNVFYVYRVVKSCIIFDSVL	2.6 ± 0.076

Substance	amyloid nucleation score
HAGLQRALTPQIRLFSGLAS	-0.268 ± 1.4
KQFDTSGLNVRRSCNRSRHM	0.301 ± 0.56
SFLNMGCRTVYRC	0.331 ± 0.61
NSVIFELISSCVNDSNVAGD	1.45 ± 0.63
PETFLPTSRVPEMGKLDTLS	0.456 ± 0.22
FNSTTTESLHAVAEGTMNPL	0.671 ± 0.54
DYRLKLLYYSSWSVLLYFVG	-0.142 ± 0.21
VMGLT	-0.242 ± 1.1
SLISCEWSYTWCGKFVILLV	-0.707 ± 1.1
FQAGREKSCCAYEVGDGCLV	-1.16 ± 2.4
FITRRSLGCRFPKPKSLRIN	-0.012 ± 0.4
RGSPFGVSM	5.4 ± 0.091
TGCRGSVMSFDMLFSYILYL	0.205 ± 0.26
GNLSPSLCGHILLVTLIKGW	0.291 ± 0.39
VYSWNNYGDRKILMLFLTGY	4.63 ± 0.065
LIYRVPIDLITNSNSALRCA	-0.018 ± 0.48
GAGLYCR	0.376 ± 0.52
VRSGRSDATAAKYFLHLTWY	-0.465 ± 0.89
DLRAVNLNSYSLLDSFTCFF	5.59 ± 0.06
ISGTLGSRVMGLSAWVRVSR	-0.114 ± 0.38
AMCCYGYVCCFYGSEVG	5.51 ± 0.078
FVLADYVGAARVRGTTLFAE	0.406 ± 0.53
NVGQPRNVVDSIQ	0.67 ± 0.23
MVGNIYSSPFYPRYSLTNGT	-0.161 ± 0.83
WLQTTYLGLFMVFTGFEGY	-0.586 ± 0.55
SFLLNPTADMNHCFGDVFGG	-1.44 ± 1.4

Substance	amyloid nucleation score
DNTWLFVAL	0.918 ± 0.35
YMASYGNLVGMFDAIQVLIV	1.08 ± 0.31
NCKFEKSLKPPHGPYNGNQY	0.292 ± 0.42
ADLLVVGVPSFNFWSSKVFV	inactive
DIRVLTPLRITFHLKAQGLL	-0.266 ± 1.4
VVDLVHVCSFFTFYVCATLL	1.66 ± 0.6
FHKVLSMFMMIVLVVKTWTT	inactive
FYSFTGGAVGLGLC	1.11 ± 0.49
SCVYCMSRSNWILVWMALLQ	0.614 ± 0.45
IEEPIYDSKHLPKMRSTGYT	0.486 ± 0.35
VMAGHFCYWCRCRVARQLSW	-0.69 ± 0.77
AYYVRGRNLLFVTIGYGYLC	-1 ± 1
ILFGTAHCIIG	1.52 ± 0.13
LSIMVCVICSYMVKMVVTGI	inactive
TFLSTLIALISRFSRSESWM	1.24 ± 0.93
FMSAV	0.374 ± 1.2
TYLAVGLMHYEWRGDSVSTD	-0.603 ± 0.32
VKKRGDQLSLCWCLPRDLLL	0.612 ± 0.59
FYGIARNVLRVGESMARYT	-0.059 ± 1.2
FRWNLQAWQEVSGAGQRAVV	-0.014 ± 0.76
FFNRNLMCVVLIVRT	-0.388 ± 0.47
NQYLPS	-0.126 ± 1.2

Reference: the supplement of paper PMC12042874
